This is an account of results in patent US20180094274A1 (BOARD OF TRUSTEES OF MICHIGAN STATE UNIVERSITY, published 2018).

B1: AtWRI1^1-92 (yeast two-hybrid) (other)
chain: MKKRLTTSTCSSSPSSSVSSSTTTSSPIQSEAPRPKRAKRAKKSSPSGDKSHNPTSPASTRRSSIYRGVTRHRWTGRFEAHLWDKSSWNSIQ
notes: Truncated AtWRI1 variant; not shown: Y2H fusion partner
B2: cYFP-BPM1 (other, Arabidopsis, UniProt Q8L765 1-407, looked up)
chain: MGTTRVCSEVSSGSSKSLSQSLTVSTSTTETVNGFHEFKICGYSLAKGVGVGKYVASDTFMVGGYSWAIYFYPDGKSPEDNSSYVSLFIALASEGADVRALFELTLVDQSGNGKHKVHSHFGRALDSGPYTLKYRGSMWGYKRFFRRSSLESSDYLKENSLLVRCRVGVVKSVTEGPRYYNIPVPVSNLGQQLGNLLESGKGCDVVFQVDGETFNAHKLVLATRSPVFNAQLFGPLGDRNTKCITIEDMEAPIFKVLLHFIYWDELPDMQELIGTDSTLASTLVAQHLLAAADRYALERLKAICESKLCEGVAINTVATTLALAEQHHCLQLKAVCLKFVALPENLKAVMQTDGFDYLKESCPSLLTELLQYVARLSEHSVIVSGHRKEIFADGCDASGRRVKPRLH
notes: BiFC construct transiently produced in N. benthamiana leaves; also called 35S:cYFP-BPM1; BTB/POZ and MATH domain-containing (BPM) 1; not shown: C-terminal half of YFP from the BiFC vector
B3: AtWRI1^1-77 (yeast two-hybrid) (other)
chain: MKKRLTTSTCSSSPSSSVSSSTTTSSPIQSEAPRPKRAKRAKKSSPSGDKSHNPTSPASTRRSSIYRGVTRHRWTGR
notes: as for B1
B4: 14-3-3ν (yeast two-hybrid) (other, Arabidopsis, UniProt Q96300 1-265, looked up)
chain: MSSSREENVYLAKLAEQAERYEEMVEFMEKVAKTVDTDELTVEERNLLSVAYKNVIGARRASWRIISSIEQKEESRGNDDHVSIIKDYRGKIETELSKICDGILNLLDSHLVPTASLAESKVFYLKMKGDYHRYLAEFKTGAERKEAAESTLVAYKSAQDIALADLAPTHPIRLGLALNFSVFYYEILNSPDRACSLAKQAFDEAISELDTLGEESYKDSTLIMQLLRDNLTLWNSDINDEAGGDEIKEASKHEPEEGKPAETGQ
notes: also called 14-3-3 nu; not shown: Y2H fusion partner
B5: nYFP-AtWRI1^1-366 (other)
chain: MKKRLTTSTCSSSPSSSVSSSTTTSSPIQSEAPRPKRAKRAKKSSPSGDKSHNPTSPASTRRSSIYRGVTRHRWTGRFEAHLWDKSSWNSIQNKKGKQVYLGAYDSEEAAAHTYDLAALKYWGPDTILNFPAETYTKELEEMQRVTKEEYLASLRRQSSGFSRGVSKYRGVARHHHNGRWEARIGRVFGNKYLYLGTYNTQEEAAAAYDMAAIEYRGANAVTNFDISNYIDRLKKKGVFPFPVNQANHQEGILVEAKQEVETREAKEEPREEVKQQYVEEPPQEEEEKEEEKAEQQEAEIVGYSEEAAVVNCCIDSSTIMEMDRCGDNNELAWNFCMMDTGFSPFLTDQNLANENPIEYPELFNEL
notes: also called AtWRI1^Δ367-430; not shown: N-terminal half of YFP from the BiFC vector

Experiment [1] concerns the target T1, BPM1 (yeast two-hybrid) (Arabidopsis, UniProt Q8L765 1-407).
T1 construct: also called E3 ligase bridge protein BPM1; E3 ligase linker BPM protein; not shown: Y2H fusion partner
T1 sequence (looked up): B2 chain
In words: yeast two-hybrid with truncated AtWRI1 variants.

Experiment [2] deals with T2, nYFP-AtWRI1 (Arabidopsis thaliana, UniProt Q6X5Y6 1-430).
T2 construct: BiFC construct transiently produced in N. benthamiana leaves; also called 35S:nYFP-AtWRI1; not shown: N-terminal half of YFP from the BiFC vector
T2 sequence: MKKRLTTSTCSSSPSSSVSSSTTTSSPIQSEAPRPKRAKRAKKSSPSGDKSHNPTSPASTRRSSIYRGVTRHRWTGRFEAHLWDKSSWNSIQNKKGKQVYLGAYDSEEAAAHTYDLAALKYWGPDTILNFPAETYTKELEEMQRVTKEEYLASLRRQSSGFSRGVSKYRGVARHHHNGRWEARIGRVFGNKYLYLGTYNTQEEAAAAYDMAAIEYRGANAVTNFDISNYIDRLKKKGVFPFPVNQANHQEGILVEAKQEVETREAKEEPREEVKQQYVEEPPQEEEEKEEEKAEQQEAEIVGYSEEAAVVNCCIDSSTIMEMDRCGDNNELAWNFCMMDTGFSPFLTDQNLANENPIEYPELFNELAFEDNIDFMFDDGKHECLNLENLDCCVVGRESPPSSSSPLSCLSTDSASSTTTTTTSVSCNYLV
Nature of the experiment: BiFC, transient expression in N. benthamiana leaves. The source says:
(§1) Confocal microscopy and bimolecular fluorescence complementation (BiFC) assays used 35S:YFP-AtWRI1 (including truncated AtWRI1 variants and AtWRI1 site-directed mutants fused to yellow fluorescent protein (YFP)) were generated through GATEWAY system. For BiFC experiments, 35S:nYFP-AtWRI1 (including truncated AtWRI1 variants) and 35S:cYFP-BPM1 were similarly assembled. Constructs were transformed into A. tumefaciens (GV3101 strain). For BiFC experiments to test protein-protein interaction, A. tumefaciens harboring each nYFP and cYFP fusion construct was prepared (each culture was re-suspended to 1.2 OD₆₀₀ in MMA buffer) and adjusted to 0.4 OD₆₀₀ prior to injection into plant leaves. Healthy leaves of N. benthamiana plants were infiltrated by bacterial suspensions with a 1-mL blunt-end syringe. Plants were returned to growth chambers and YFP fluorescence signals were captured by a confocal microscope 2 to 3 d after bacterial infiltration. YFP fluorescence signal intensity was analyzed using ImageJ software.
(§2) A bimolecular fluorescence complementation (BiFC) assay was used to investigate the interaction between AtWRI1 and a BPM protein (BPM1). AtWRI1 and BPM1 were subcloned to BiFC vectors which generated nYFP-AtWRI1 and cYFP-BPM1 (half N-terminus of YFP and half C-terminus of YFP, respectively). […]

Experiment [3] concerns the target T1, BPM1 (yeast two-hybrid). In words: yeast two-hybrid.
The target in experiment [4] is T3, full length AtWRI1 (bait fusion, yeast two-hybrid) (Arabidopsis thaliana, UniProt Q6X5Y6 1-430).
T3 construct: Transcription factor expressed in yeast as bait fusion; also called Arabidopsis thaliana WRINKLED1; not shown: bait fusion partner of the Y2H vector
T3 sequence: T2 sequence
In words: yeast two-hybrid.

Experiment [5] has as its target B2. Nature of the experiment: BiFC, transient expression in N. benthamiana leaves.
Text: as §1, §2

Consider B1, for which, in experiment [1], the binding result is on record as “binds”. For B2, the binding result in experiment [2] is “binds”.

B3: in experiment [3], the binding result is recorded as “no binding”. Consider B4, for which, in experiment [4], the binding result is reported as “binds”. Consider B5, for which the binding result in experiment [5] is recorded as “binds”.
